Test results reported in patent US20200131230A1 (published 2020).
Like-named read-outs stand apart in the source and are kept apart here. Positions of bridges follow the written chain, without caps; N, C: chain ends. Non-standard residues stand in square brackets, D forms with d. 2Nal = N[C@@H](Cc1ccc2ccccc2c1)C(=O)O; Phg = N[C@H](C(=O)O)c1ccccc1; Tle = CC(C)(C)[C@H](N)C(=O)O; hCys = N[C@@H](CCS)C(=O)O; Nle = CCCC[C@H](N)C(=O)O; MS = not defined here

B1: Compound 51 (peptide)
peptide: {CH2CO}-[2Nal]ISGRNW[Phg]KWVC-NH2
modifications: thioether N-12
SMILES: CC[C@H](C)[C@@H]1NC(=O)[C@H](Cc2ccc3ccccc3c2)NC(=O)CSC[C@@H](C(N)=O)NC(=O)[C@H](C(C)C)NC(=O)[C@H](Cc2c[nH]c3ccccc23)NC(=O)[C@H](CCCCN)NC(=O)[C@H](c2ccccc2)NC(=O)[C@H](Cc2c[nH]c3ccccc23)NC(=O)[C@H](CC(N)=O)NC(=O)[C@H](CCCNC(=N)N)NC(=O)CNC(=O)[C@H](CO)NC1=O
B2: Compound 57 (peptide)
peptide: {CH2CO}-[2Nal]ISGKDW[Nle]KWVC-NH2
modifications: thioether N-12
SMILES: CCCC[C@@H]1NC(=O)[C@H](Cc2c[nH]c3ccccc23)NC(=O)[C@H](CC(=O)O)NC(=O)[C@H](CCCCN)NC(=O)CNC(=O)[C@H](CO)NC(=O)[C@H]([C@@H](C)CC)NC(=O)[C@H](Cc2ccc3ccccc3c2)NC(=O)CSC[C@@H](C(N)=O)NC(=O)[C@H](C(C)C)NC(=O)[C@H](Cc2c[nH]c3ccccc23)NC(=O)[C@H](CCCCN)NC1=O
B3: Compound 66 (peptide)
peptide: {CH2CO}-FISGKNWVSWVC-NH2
modifications: thioether N-12
SMILES: CC[C@H](C)[C@@H]1NC(=O)[C@H](Cc2ccccc2)NC(=O)CSC[C@@H](C(N)=O)NC(=O)[C@H](C(C)C)NC(=O)[C@H](Cc2c[nH]c3ccccc23)NC(=O)[C@H](CO)NC(=O)[C@H](C(C)C)NC(=O)[C@H](Cc2c[nH]c3ccccc23)NC(=O)[C@H](CC(N)=O)NC(=O)[C@H](CCCCN)NC(=O)CNC(=O)[C@H](CO)NC1=O
B4: Compound 53 (peptide)
peptide: {CH2CO}-[2Nal]ISGRNWVKW[Tle]C-NH2
modifications: thioether N-12
SMILES: CC[C@H](C)[C@@H]1NC(=O)[C@H](Cc2ccc3ccccc3c2)NC(=O)CSC[C@@H](C(N)=O)NC(=O)[C@H](C(C)(C)C)NC(=O)[C@H](Cc2c[nH]c3ccccc23)NC(=O)[C@H](CCCCN)NC(=O)[C@H](C(C)C)NC(=O)[C@H](Cc2c[nH]c3ccccc23)NC(=O)[C@H](CC(N)=O)NC(=O)[C@H](CCCNC(=N)N)NC(=O)CNC(=O)[C@H](CO)NC1=O
B5: Compound 24 (peptide)
peptide: {CH2CO}-[2Nal]ISGRNWVKWVC-NH2
modifications: thioether N-12
SMILES: CC[C@H](C)[C@@H]1NC(=O)[C@H](Cc2ccc3ccccc3c2)NC(=O)CSC[C@@H](C(N)=O)NC(=O)[C@H](C(C)C)NC(=O)[C@H](Cc2c[nH]c3ccccc23)NC(=O)[C@H](CCCCN)NC(=O)[C@H](C(C)C)NC(=O)[C@H](Cc2c[nH]c3ccccc23)NC(=O)[C@H](CC(N)=O)NC(=O)[C@H](CCCNC(=N)N)NC(=O)CNC(=O)[C@H](CO)NC1=O
B6: Compound 41 (peptide)
peptide: {CH2CO}-[2Nal]ISGRNWVHWVC-NH2
modifications: thioether N-12
SMILES: CC[C@H](C)[C@@H]1NC(=O)[C@H](Cc2ccc3ccccc3c2)NC(=O)CSC[C@@H](C(N)=O)NC(=O)[C@H](C(C)C)NC(=O)[C@H](Cc2c[nH]c3ccccc23)NC(=O)[C@H](Cc2c[nH]cn2)NC(=O)[C@H](C(C)C)NC(=O)[C@H](Cc2c[nH]c3ccccc23)NC(=O)[C@H](CC(N)=O)NC(=O)[C@H](CCCNC(=N)N)NC(=O)CNC(=O)[C@H](CO)NC1=O
B7: Compound 42 (peptide)
peptide: {CH2CO}-[2Nal]ISGHNWVKWVC-NH2
modifications: thioether N-12
SMILES: CC[C@H](C)[C@@H]1NC(=O)[C@H](Cc2ccc3ccccc3c2)NC(=O)CSC[C@@H](C(N)=O)NC(=O)[C@H](C(C)C)NC(=O)[C@H](Cc2c[nH]c3ccccc23)NC(=O)[C@H](CCCCN)NC(=O)[C@H](C(C)C)NC(=O)[C@H](Cc2c[nH]c3ccccc23)NC(=O)[C@H](CC(N)=O)NC(=O)[C@H](Cc2c[nH]cn2)NC(=O)CNC(=O)[C@H](CO)NC1=O
B8: Compound 43 (peptide)
peptide: {CH2CO}-[2Nal]ISGKNWVKWVC-NH2
modifications: thioether N-12
SMILES: CC[C@H](C)[C@@H]1NC(=O)[C@H](Cc2ccc3ccccc3c2)NC(=O)CSC[C@@H](C(N)=O)NC(=O)[C@H](C(C)C)NC(=O)[C@H](Cc2c[nH]c3ccccc23)NC(=O)[C@H](CCCCN)NC(=O)[C@H](C(C)C)NC(=O)[C@H](Cc2c[nH]c3ccccc23)NC(=O)[C@H](CC(N)=O)NC(=O)[C@H](CCCCN)NC(=O)CNC(=O)[C@H](CO)NC1=O
B9: Compound 44 (peptide)
peptide: {CH2CO}-[2Nal]ISGSNWVKWVC-NH2
modifications: thioether N-12
SMILES: CC[C@H](C)[C@@H]1NC(=O)[C@H](Cc2ccc3ccccc3c2)NC(=O)CSC[C@@H](C(N)=O)NC(=O)[C@H](C(C)C)NC(=O)[C@H](Cc2c[nH]c3ccccc23)NC(=O)[C@H](CCCCN)NC(=O)[C@H](C(C)C)NC(=O)[C@H](Cc2c[nH]c3ccccc23)NC(=O)[C@H](CC(N)=O)NC(=O)[C@H](CO)NC(=O)CNC(=O)[C@H](CO)NC1=O
B10: Compound 52 (peptide)
peptide: {CH2CO}-[2Nal]ISGRNWVKW[Phg]C-NH2
modifications: thioether N-12
SMILES: CC[C@H](C)[C@@H]1NC(=O)[C@H](Cc2ccc3ccccc3c2)NC(=O)CSC[C@@H](C(N)=O)NC(=O)[C@H](c2ccccc2)NC(=O)[C@H](Cc2c[nH]c3ccccc23)NC(=O)[C@H](CCCCN)NC(=O)[C@H](C(C)C)NC(=O)[C@H](Cc2c[nH]c3ccccc23)NC(=O)[C@H](CC(N)=O)NC(=O)[C@H](CCCNC(=N)N)NC(=O)CNC(=O)[C@H](CO)NC1=O
B11: Compound 65 (peptide)
peptide: {CH2CO}-FISGRNWVTWVC-NH2
modifications: thioether N-12
SMILES: CC[C@H](C)[C@@H]1NC(=O)[C@H](Cc2ccccc2)NC(=O)CSC[C@@H](C(N)=O)NC(=O)[C@H](C(C)C)NC(=O)[C@H](Cc2c[nH]c3ccccc23)NC(=O)[C@H]([C@@H](C)O)NC(=O)[C@H](C(C)C)NC(=O)[C@H](Cc2c[nH]c3ccccc23)NC(=O)[C@H](CC(N)=O)NC(=O)[C@H](CCCNC(=N)N)NC(=O)CNC(=O)[C@H](CO)NC1=O
B12: Compound 56 (peptide)
peptide: {CH2CO}-[2Nal]ISGKN[2Nal]VKWVC-NH2
modifications: thioether N-12
SMILES: CC[C@H](C)[C@@H]1NC(=O)[C@H](Cc2ccc3ccccc3c2)NC(=O)CSC[C@@H](C(N)=O)NC(=O)[C@H](C(C)C)NC(=O)[C@H](Cc2c[nH]c3ccccc23)NC(=O)[C@H](CCCCN)NC(=O)[C@H](C(C)C)NC(=O)[C@H](Cc2ccc3ccccc3c2)NC(=O)[C@H](CC(N)=O)NC(=O)[C@H](CCCCN)NC(=O)CNC(=O)[C@H](CO)NC1=O
B13: Compound 59 (peptide)
peptide: {CH2CO}-[2Nal]ISGHNW[Nle]KWVC-NH2
modifications: thioether N-12
SMILES: CCCC[C@@H]1NC(=O)[C@H](Cc2c[nH]c3ccccc23)NC(=O)[C@H](CC(N)=O)NC(=O)[C@H](Cc2c[nH]cn2)NC(=O)CNC(=O)[C@H](CO)NC(=O)[C@H]([C@@H](C)CC)NC(=O)[C@H](Cc2ccc3ccccc3c2)NC(=O)CSC[C@@H](C(N)=O)NC(=O)[C@H](C(C)C)NC(=O)[C@H](Cc2c[nH]c3ccccc23)NC(=O)[C@H](CCCCN)NC1=O
B14: Compound 28 (peptide)
peptide: {CH2CO}-[2Nal]ISGRN[2Nal]VKWVC-NH2
modifications: thioether N-12
SMILES: CC[C@H](C)[C@@H]1NC(=O)[C@H](Cc2ccc3ccccc3c2)NC(=O)CSC[C@@H](C(N)=O)NC(=O)[C@H](C(C)C)NC(=O)[C@H](Cc2c[nH]c3ccccc23)NC(=O)[C@H](CCCCN)NC(=O)[C@H](C(C)C)NC(=O)[C@H](Cc2ccc3ccccc3c2)NC(=O)[C@H](CC(N)=O)NC(=O)[C@H](CCCNC(=N)N)NC(=O)CNC(=O)[C@H](CO)NC1=O
B15: Compound 67 (peptide)
peptide: {CH2CO}-[2Nal]ISG[MS]DW[Nle]KWVC-NH2
modifications: thioether N-12; reading uncertain
B16: Compound 54 (peptide)
peptide: {CH2CO}-[2Nal]ISGRNWVKWV[hCys]-NH2
modifications: thioether N-12
SMILES: CC[C@H](C)[C@@H]1NC(=O)[C@H](Cc2ccc3ccccc3c2)NC(=O)CSCC[C@@H](C(N)=O)NC(=O)[C@H](C(C)C)NC(=O)[C@H](Cc2c[nH]c3ccccc23)NC(=O)[C@H](CCCCN)NC(=O)[C@H](C(C)C)NC(=O)[C@H](Cc2c[nH]c3ccccc23)NC(=O)[C@H](CC(N)=O)NC(=O)[C@H](CCCNC(=N)N)NC(=O)CNC(=O)[C@H](CO)NC1=O

What was measured:
[1] = biological target: T1, Thrombospondin human platelet (Calbiochem, 605225) (human, UniProt P07996 19-1170); assay: cell-based or functional assay
T1 sequence (P07996 19-1170 limits assumed): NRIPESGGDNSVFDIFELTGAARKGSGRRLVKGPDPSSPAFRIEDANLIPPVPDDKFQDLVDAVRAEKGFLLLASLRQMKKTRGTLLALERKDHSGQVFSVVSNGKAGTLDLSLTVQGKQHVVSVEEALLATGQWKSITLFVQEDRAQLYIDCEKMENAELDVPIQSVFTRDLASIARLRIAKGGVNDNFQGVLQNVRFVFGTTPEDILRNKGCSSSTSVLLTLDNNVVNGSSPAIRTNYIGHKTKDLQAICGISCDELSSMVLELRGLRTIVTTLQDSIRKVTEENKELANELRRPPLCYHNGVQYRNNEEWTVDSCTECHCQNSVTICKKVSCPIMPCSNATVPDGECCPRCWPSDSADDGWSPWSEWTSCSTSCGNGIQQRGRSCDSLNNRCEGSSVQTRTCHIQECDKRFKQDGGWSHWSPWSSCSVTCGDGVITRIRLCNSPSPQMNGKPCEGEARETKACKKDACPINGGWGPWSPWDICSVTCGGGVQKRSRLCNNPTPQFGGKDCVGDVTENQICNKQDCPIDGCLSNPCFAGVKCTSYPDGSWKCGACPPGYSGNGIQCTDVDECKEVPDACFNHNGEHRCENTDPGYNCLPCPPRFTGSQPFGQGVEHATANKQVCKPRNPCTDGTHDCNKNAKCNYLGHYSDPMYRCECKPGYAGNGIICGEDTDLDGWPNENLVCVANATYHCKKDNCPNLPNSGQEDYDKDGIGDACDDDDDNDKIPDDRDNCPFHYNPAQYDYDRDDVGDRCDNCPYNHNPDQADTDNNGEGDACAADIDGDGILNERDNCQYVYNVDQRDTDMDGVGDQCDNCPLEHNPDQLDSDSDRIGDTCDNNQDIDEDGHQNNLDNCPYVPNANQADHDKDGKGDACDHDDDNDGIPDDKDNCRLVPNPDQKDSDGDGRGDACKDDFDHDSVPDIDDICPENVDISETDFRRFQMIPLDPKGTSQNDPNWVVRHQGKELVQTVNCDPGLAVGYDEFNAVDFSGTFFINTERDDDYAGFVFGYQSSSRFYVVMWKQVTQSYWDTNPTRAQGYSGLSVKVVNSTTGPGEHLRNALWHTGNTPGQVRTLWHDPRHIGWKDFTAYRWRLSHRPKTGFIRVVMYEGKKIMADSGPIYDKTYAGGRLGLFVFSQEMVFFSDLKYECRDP

[2] = biological target: T1, Thrombospondin human platelet …; assay: cell-based or functional assay; remark: listed apart in the source
[3] = biological target: Recombinant-hTSP1 (human, UniProt P07996 19-1170, limits assumed); assay: SPR (Biacore T200), single-cycle kinetics, recombinant hTSP1 immobilised on NTA chip
Chain of Recombinant-hTSP1 (P07996 19-1170 limits assumed): as above
Description: First, 500 μM NiCl₂ was injected over an NTA-Chip (produced by GE Healthcare, BR100532) at a flow rate of 5 μL/min. for 1 minute to thereby activate NTA groups. Then, an EDC/NHS mixture was injected at a flow rate of 10 μL/min. for 7 minutes to thereby activate the carboxyl groups of dextran. Recombinant-hTSP1 was injected at a flow rate of 10 μL/min. for 7 minutes to immobilize the TSP1 on the substrate surfaces with activated NTA and carboxyl groups. Ethanolamine was injected at a flow rate of 10 μL/min. for 7 minutes to thereby deactivate unreacted, activated carboxyl groups.
Since Biacore T200 is highly responsive to change in DMSO concentrations, DMSO solutions were sequentially injected at concentrations of 4%, 4.4%, 4.8%, 5.2%, 5.6%, and 6% to correct for DMSO effects.
The analysis was conducted using the evaluation software provided with Biacore T100 and T200. A DMSO correction curve obtained by solvent correction measurements was applied for the analysis. Kinetics fitting was done on the difference data obtained by subtracting the baseline data from sample measurement data.

[4] = biological target: T1, Thrombospondin human platelet …; assay: cell-based or functional assay; remark: listed apart in the source

Binder | Cell adhesion IC50 [1] [nM] | Kd [3] [nM] | Cell adhesion IC50 [4] [nM] | also measured
B1 | 16 |  |  | 
B2 | 15.6 |  |  | 
B3 | 33.8 |  |  | 
B4 | 15.9 |  |  | 
B5 |  | 0.12 |  | Cell adhesion IC50 [2]: 6.1 nM
B6 |  | 0.37 | 16.4 | 
B7 |  | 0.44 | 32 | 
B8 |  | 0.13 | 9.2 | 
B9 |  | 0.58 | 30.3 | 
B10 | 10.3 |  |  | 
B11 | 30.6 |  |  | 
B12 | 13.2 |  |  | 
B13 | 20.7 |  |  | 
B14 |  | 0.55 | 29.4 | 
B15 | 12.7 |  |  | 
B16 | 19.5 |  |  | 
